Measured values reported in a protein production outcome set (Wang et al. 2014).

test: label from the status in PepcDB records
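Also: failed if final PepcDB status was selected cloned or expressed and not failed if soluble or beyond.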

Sequence | protein production
MARRWTPQRFVMLRRVRVVICVTTVTLASVLAFGVGARKTVALTVNGETTTVTTYAMSVDRLLQEQQVKVKTHDLVESTSSGTLQNHSVVTVRSAYQTTVTIDGQEVPFWTVATSADQLLGFFEANEAEASKITVNIDNVYNKLTGGLVINQNGPVTVIADGKSSVSPNGKLPAASILDSKGIILNKEDRVSVEKDNGETILRVQRVTHDEQTRTKTVPHGTQTIIDASLQPGEAVVRQEGEDGEIQQTYDVTYVDGVEESEKLINEVTTKIAIDQIIAVGPEKTESSDADNADNGQADSGSNDSDSSKSDKKDESDKKDSDSTDKKNDSSEKNDSTSTPTTEPTQTPTPTPTPTQQQQQTQTTTNPSDGCRLYHPSAAQAQTYAAGAAAQYGWTGQHWTNLVKLWNRESSWLWYSENASSGAYGIPQSLPGSKMASFGANWRDDAAVQIDWGLNYIAQRYGNPTKAREHSEQYGWY | failed
MARSIDYGNLMHRAMRGLIQSVLEDVAEHGLPGAHHFFITFDTTHPDVAMADWLRARYPQEMTVVIQHWYENLSADDHGFSVTLNFGNQPEPLVIPFDAVRTFVDPSVEFGLRFETHEEDEEEETGGDEDPDGDDEPPRHDAQVVSLDKFRKLEHHHHHH | failed
MARSSSFLDNLLTSPSTERYRVGLSVLFLLCVWLVVGSFSQGLPNAMLLMAAAVIGGYMAINIGANDVANNVGPAVGSGALSLGAAVLLAAVFEAAGALIAGGDVVSTIKGGIIDPTSLEDPRAFVWLMTAALLAGALWLNLATWMGAPVSTTHSIVGGVLGAGIAAGGWAIADWAVMGKIAASWVISPVLGGALAALFLFAIKKTVLYRQNLVSSARTFVPWLVAIMAWAFATYLMIKGVKKIVKVDMVEASVIGLIVAGVVFFVMRTLVGRKASTMENSAQGVNTLFTWPLIFAAALLSFAHGANDVANAIGPLAAINDAIQAGGGVVTSAKIPLWVMLVGALGLAVGLMLFGPRLIKTVGSEITELDKTRAFCIALSAALTVILASQLGLPVSSTHIAIGGVFGVGFLREYLKSNYATQLHKIIEQHDPTDQERLKPFLDDFRNASVEEMEKLLKQAKKKKQQVPLSKSERKRLKKIYREEMVKRSHLVKIAAAWIITVPASAIMAAFLFFTLRGLMV | failed
MASDAPTGHVSDLDWLMSGLVQRVPHTTSAVLLSCDGLVKSVHGLDPDSADHMAALASGLYSLGRSAGIRFGDGGDVRQVVVELDSTLLFVSTAGSGTCLAVLAGREADAAVLGYEMAMLVKSVRPYLMTAPRQAAAQPPAMRP | failed
MASEHHEALNLYAVRVARGEGVKQDFARAASLFRRADRCGFNCEPVYDDMVNDFRDKAFGMELVSSKRAFLKALRPETAEARCTVGEAFIGQGDADSLRTGRELLTSAATLGSGKAMYLLGVLCRDGKGVAANAERAFMWFSLAASCGFAKAESERVNAEGKLDDAGRTRAMQLAARWRRQYLAPVCLEHHHHHH | failed
MASEREQISRKVALIALIANLILMAGKVFFGLVGDSEAVFADGIHSAADVVASIAVLAVIGISNKPPDQDHPFGHGKAEVISEAIVGIILVIVSVYILIEAILSFVKGPSVPQYSALFAALISYVAKEILYRYSIKQGKKWNSKAIIAIAYDHKGDIVASLAAFIGVLLAIIGNSRGWSYLLYADAIASAIVAYLIFKISMELIRPSVGVLMEKSVDPELIEEYKAVIFQCDQVKRIDRIRAREHGHYKLLDVRLSLDHDLTIKQGHDIAREIRNEIKRQFSDVEEVLIHVNPYFEE | failed
MASFQQYKTKTGYKWLFKMGVGIDPKTGNRKTTTRRGFKTKKEAVAAAAEFQKEIDNNALARNDITFEDVFKEWWDVHSKTIKRSTRYRKLSNFKKHILPHFGKLKIKDITRAYCQKVINLIAQDIDSVQNVKIQANLVFKYALRMEYITKNPMEFVVIPKKEENFLSQEEEKRNFWEKDEIKTFLEKAHSQLAPQDYVMFYVLIFTGMRKGELIALEWKDVDLKEKTINIKQTMFFENGKEVIQTTKKYHSKRIITIDDQTAQILKKWRTQQKEMLLSNGITSEAKYVLIRGDMRPLRLAYPNDLLNRMITKNKLHRITIHGFRHSHASILFEAGASIKEVQARLGHKEIQTTMNIYTHVTKTAKAKTAETFKKYMEL | failed
MASFVESGWQYLVTHFSDFQLACIGSFLLHESVFFLSGLPFIFLERQGFLSKYKIQTKNNTPAAQGKCITRLLLYHFSVNLPLMLASYPVFRAMGMRSSFPLPSWKEVSAQILFYFIIEDFVFYWGHRILHSKWLYKNVHSVHHEYATPFGLTSEYAHPAEILFLGFATIVGPALTGPHLITLWLWMVLRVLETVEAHCGYHFPWSLSNFLPLYGGADFHDYHHRLLYTKSGNYSSTFVYMDWIFGTDKGYRRLKTLKENGDMKQT | failed
MASGSPPSQPSPASGSGYVPGSVSAAFVTCPNEKVAKEIARAVVEKRLAACVNLIPQITSIYEWKGKIEEDSEVLMMIKTQSSLVPALTEFVRSVHPYEVAEVIALPVEQGNPPYLHWVHQVTESV | not failed
MASIVMLLRALMSCRLTPKDEPETSDSSSSAAKLYRNIVGDENVTRKRISVVDTSHLGDNHEFIIETTCGSNDMDEGFYWIIVRNHLM | failed
MASKEAHVSLARGEQSVKRIKEFDPGKDSFSVLLLGIDAREKNGETVDQARSDANVLVTFNRKEKTAKMLSIPRDAYVNIPGHGYDKFTHAHAYGGVDLTVKTVEEMLDIPVDYVVESNFTAFEDVVNELNGVKVTVKSDKVIQQIKKDTKGKVVLQKGTHTLDGEEALAYVRTRKADSDLLRGQRQMEVLSAIIDKSKSLSSIPAYDDIVDTMGQNLKMNLSLKDAIGLFPFITSLKSVESIQLTGYDYEPAGVYYFKLNQQKLQEVKKELQNDLGVLEHHHHHH | not failed
MASKKPDKTYEEMVKEVERLKLENKTLKQKVKSSGAVSSDDSILTAAKRESIIVSSSRALGAVAMRKIEAKVRSRAAKAVTEQELTSLLQSLTLRVDVSMEELEHHHHHH | not failed
MASLAFIQAFLESFKGFLSQATLISVLIASVLILFCAILLLLALLLRNRLASYIATAAFLGAFLSMPFVLNILLTQAIYPIETRILHANPLSYSNAFSLQVGVKNHSKFTLNKCVLRLEVLKNPHNFVEEHAFKWFVKKSYEKIFKEKILPKESKVFSFFIDNYPYSKTAPYQVSLFCL | failed
MASLGFNLGFTFSNAQIQQHRKVSGGGRARVISCNSSSSSSSQASSPQGISAVTPLEIELEFFGPKPGSDGSYPVDKAKAVSGDKLLRSIMQDNKIELYAAYGKVMNCGGGGSCGTCIVEILDGRDLLNERTDTENRYLKKKPESWRLACQTIVGNKENSGKSALDIGCRAADSTVEEVN | failed
MASLGSAAAGEPATGAEAEPGPPAPPPPPPPPPAPSPSALGPLLPLQREPLYNWQATKASLKERFAFLFNSELLSDVRFVLGKGRGAAAAGGPQRIPAHRFVLAAGSAVFDAMFNGGMATTSAEIELPDVEPAAFLALLRFLYSDEVQIGPETVMTTLYTAKKYAVPALEAHCVEFLTKHLRADNAFMLLTQARLFDEPQLASLCLDTIDKSTVDAISAEGFTDIDIDTLCAVLERDTLSIRESRLFGAIVRWAEAECQRQQLAVTFGNKQKVLGKALSLIRFPLMTIEEFAAGPAQSGILSDREVVNLFLHFTVNPKPRVEYIDRPRCCLRGKECCINRFQQVESRWGYSGTSDRIRFTVNRRISVVGFGLYGSIHGPTDYQVNIQIIEYEKKQTLGQNDTGFSCDGTANTFRVMFKEPIEILPNVCYTACATLKGPDSHYGTKGLKKVVHETPAASKTVFLFFSSPGNNNGTSIEDGQIPEIIFYT | failed
MASMTMTSSFLPTVSNLPANISSNSRRSLTVVKASGSENTTSLENKKQEQSMKMRRDLVFTAAAAAVCSLAKVAMADDEPKRGTEAAKKKYAPVCVTMPTAKICRN | failed
MASRSKPSVRAFARQVHLWLGLSIGVLFAVVGLTGSILVFYTAIDDALHPEIRLRGAAPPPSWEQVYQTARATYPDKAGPWRFEVTEAGGDIPARYYKPPERADRDFAPMMVWFSADGGRVIRRDYWGEYAMTWVYDLHHRLLLQATGGAILGWSGLAMLALMVAGLTAWWPRRGGWRKALQMKPRAAPLRKLYDWHKQTGLWSFGLLVLLTLTGVLLALPKESEIALRPILGPPAGAPTIDKSITFDPGTRISVDQAVAIAQGALPGARLAWIETPSTDSGVYRLRLQTPGDPSRRFPHSFVWITPATGEVLAMTDARQAGAHDVLLNWTHPLHDASAGGLPARLLAVLVGLAPSALLILGFMRWRQRLRPQERKLSDHS | failed
MASRSRRPERRQEPLSRERIVGAAVELLDTVGERGLTFRALAERLATGPGAIYWHITGKAELLGAATDAVVTAAVTAGPTGAADSPQDAVRAVALGLWDATEAHPWLATQLATQLSRTPWGTVAPRIFESLGRQVQAMGVPEAHWFTASSALMHYILGAAGQNAANSASAGPVGADVDRDEFLDTVSTAWEGLDPDAYPFTRAVADQVRGHDDREQFLAGITLVLTGITALHRPGR | not failed
MASSAFAFPSYIITKGGLSTDSCKSTSLSSSRSLVTDLPSPCLKPNNNSHSNRRAKVCASLAEKGEYYSNRPPTPLLDTINYPIHMKNLSVKELKQLSDELRSDVIFNVSKTGGHLGSSLGVVELTVALHYIFNTPQDKILWDVGHQSYPHKILTGRRGKMPTMRQTNGLSGFTKRGESEHDCFGTGHSSTTISAGLGMAVGRDLKGKNNNVVAVIGDGAMTAGQAYEAMNNAGYLDSDMIVILNDNKQVSLPTATLDGPSPPVGALSSALSRLQSNPALRELREVAKGMTKQIGGPMHQLAAKVDEYARGMISGTGSSLFEELGLYYIGPVDGHNIDDLVAILKEVKSTRTTGPVLIHVVTEKGRGYPYAERADDKYHGVVKFDPATGRQFKTTNKTQSYTTYFAEALVAEAEVDKDVVAIHAAMGGGTGLNLFQRRFPTRCFDVGIAEQHAVTFAAGLACEGLKPFCAIYSSFMQRAYDQVVHDVDLQKLPVRFAMDRAGLVGADGPTHCGAFDVTFMACLPNMIVMAPSDEADLFNMVATAVAIDDRPSCFRYPRGNGIGVALPPGNKGVPIEIGKGRILKEGERVALLGYGSAVQSCLGAAVMLEERGLNVTVADARFCKPLDRALIRSLAKSHEVLITVEEGSIGGFGSHVVQFLALDGLLDGKLKWRPMVLPDRYIDHGAPADQLAEAGLMPSHIAATALNLIGAPREALF | failed
MASSISAAEVKVVPEEYNFLQKHVAFFDRNKDGIVYPSETFQGFRAIGCGYLLSTFAAVFINISLSSKTRPGKGFSFSFPIEVKNVRLGIHSSDSGVYDKDGRFVASKFEEIFAKHAHTHRDALTSKELKELLKANREPNDCKGGILAFGEWKVLYNLCKDKSGLLHKEIVRAVYDGSLFEQLEKQRSSKTP | failed
MASTGASRSLAASPRPPQGRSSRQDKYSVLLPTYNERENLPLIVWLLVKSFSESAINYEIIIIDDGSPDGTREVAEQLAEIYGPDRILLRPREKKLGLGTAYIHGIKHATGNYVIIMDADLSHHPKFIPEFIRKQKEGNFDIVSGTRYKGNGGVYGWDLKRKIISRGANFITQILLRPGASDLTGSFRLYRKEVLQKLIEKCVSKGYVFQMEMIVRARQMNYTIGEVPISFVDRVYGESKLGGNEIVSFLKGLLTLFATT | failed
MASVKLPWDLEEEILSRLPPRSLVRFRTVCKHWNGLFSDKRFVKKHLVRARPQFIFLTESKKMYSIEIDLGGTIEVREVPYDFHCQPMKKNFTTIMACDGLLFRDFWKQGVAVWNPWLRQVGWIEYEDKGFRFCGVGYDSCKPDKCYKILGYFNCTRRLSDSLQEGYYQAAIYECASQAFKFIDTPNPFNLWPNKDPLSVNGNLYWLAHNHPETLEYFIETFDFSMEIFKPFCLLPCRKDFGSNELVLAVFKEDRFSLLKQCFETTKIEIWVTKMKIDREEEVVWIKFMTLPTTNLPNLDDTYCCSSYFIFDKTIIMCCGDYKTGATCIYMVRGDMFKKIQINSGIFQFSYCVYLPNLISVPFESHQV | failed
